B1: Rab-3A-interacting protein (Rattus norvegicus (Rat)), Q62739 (parent)
chain: MANDPLEGFHEVNLASPTSPDLLGVCDPGTQEQTTSPSVIYRPHPSTLCSATIQANALNLSDLPTQPVYSSPRHLNCAEISNISIHVPEPASSVASEVAAGLTRFTSRKDSCNAEREFLQGATVTEASAGNDDIFGLSTDSLSRLRSPSVLEVREKGYERLKEELAKAQRELKLKDEECERLSKVRDQLGQELEELTASLFEEAHKMVREANVKQATAEKQLKEAQGKIDVLQAEVAALKTLVLSSSPTSPTQEPLAAGKTPFKRGHTRNKSTSSAMSGSHQDFSAIQPIVKDCREADLSLYNEFRSWKDEPTMDRTCPFLDKIYQEDIFPCLTFAKSELASAVLEAVENNTLSIEPVGLQPIRFVKASAVECGGPKKCALTGQSKPCKHRIKLGDSSSYYYISPVCRYRITSVCNFFTYIRYIQQGLVKQQDVDQMFWEVMQLRKEMSLAKLGYFKEEL
B2: Rab-3A-interacting protein (Rattus norvegicus (Rat)), Q62739 (parent)
chain: B1 chain
partner: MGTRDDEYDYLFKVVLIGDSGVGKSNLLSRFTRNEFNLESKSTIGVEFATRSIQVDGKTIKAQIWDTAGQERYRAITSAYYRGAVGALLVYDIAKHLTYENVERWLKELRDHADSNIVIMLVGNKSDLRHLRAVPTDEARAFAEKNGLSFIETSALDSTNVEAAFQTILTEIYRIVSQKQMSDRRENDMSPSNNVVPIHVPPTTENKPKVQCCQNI

Variants of: B1
Conditions: with exoc6_mouse Exoc6, Q8R313
exoc6_mouse Exoc6, Q8R313, sequence (Q8R313 whole entry): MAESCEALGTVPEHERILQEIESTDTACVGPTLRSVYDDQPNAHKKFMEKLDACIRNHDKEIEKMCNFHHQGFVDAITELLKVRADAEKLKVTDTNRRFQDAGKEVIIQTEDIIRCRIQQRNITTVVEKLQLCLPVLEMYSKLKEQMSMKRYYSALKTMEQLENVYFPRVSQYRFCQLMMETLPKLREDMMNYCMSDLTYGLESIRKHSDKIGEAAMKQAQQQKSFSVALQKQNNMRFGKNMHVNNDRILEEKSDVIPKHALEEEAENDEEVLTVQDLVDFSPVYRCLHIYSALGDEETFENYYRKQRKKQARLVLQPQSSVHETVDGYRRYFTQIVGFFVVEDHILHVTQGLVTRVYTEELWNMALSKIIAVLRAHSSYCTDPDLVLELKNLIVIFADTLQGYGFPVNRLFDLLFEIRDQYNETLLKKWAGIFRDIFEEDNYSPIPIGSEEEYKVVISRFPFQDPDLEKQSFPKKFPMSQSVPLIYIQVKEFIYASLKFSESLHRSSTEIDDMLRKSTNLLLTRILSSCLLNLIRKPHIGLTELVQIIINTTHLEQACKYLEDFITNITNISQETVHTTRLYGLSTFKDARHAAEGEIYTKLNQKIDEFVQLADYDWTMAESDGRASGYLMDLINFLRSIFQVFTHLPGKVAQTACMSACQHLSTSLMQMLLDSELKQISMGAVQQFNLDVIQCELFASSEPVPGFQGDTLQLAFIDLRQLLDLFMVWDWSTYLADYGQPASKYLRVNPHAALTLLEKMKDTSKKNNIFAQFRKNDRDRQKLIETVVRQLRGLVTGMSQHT
For MANDPLEGFHEVNLASPTSPDLLGVCDPGTQEQTTSPSVIYRPHPSTLCSATIQANALNLSDLPTQPVYSSPRHLNCAEISNISIHVPEPASSVASEVAAGLTRFTSRKDSCNAEREFLQGATVTEASAGNDDIFGLSTDSLSRLRSPSVLEVREKGYERLKEELAKAQRELKLKDEECERLSKVRDQLGQELEELTASLFEEAHKMVREANVKQATAEKQLKEAQGKIDVLQAEVAALKTLVLSSSPTSPTQEPLAAGKTPFKRGHTRNKATSSAMSGSHQDFSAIQPIVKDCREADLSLYNEFRSWKDEPTMDRTCPFLDKIYQEDIFPCLTFAKSELASAVLEAVENNTLSIEPVGLQPIRFVKASAVECGGPKKCALTGQSKPCKHRIKLGDSSSYYYISPVCRYRITSVCNFFTYIRYIQQGLVKQQDVDQMFWEVMQLRKEMSLAKLGYFKEEL [S272A], the “effect of a mutation on the interaction” value was “disrupting interaction”.

Variants of: B1
Conditions: with exoc6_mouse Exoc6, Q8R313
Remark: another data set of the same source
For MANDPLEGFHEVNLASPTSPDLLGVCDPGTQEQTTSPSVIYRPHPSTLCSATIQANALNLSDLPTQPVYSSPRHLNCAEISNISIHVPEPASSVASEVAAGLTRFTSRKDSCNAEREFLQGATVTEASAGNDDIFGLSTDSLSRLRSPSVLEVREKGYERLKEELAKAQRELKLKDEECERLSKVRDQLGQELEELTASLFEEAHKMVREANVKQATAEKQLKEAQGKIDVLQAEVAALKTLVLSSSPTSPTQEPLAAGKTPFKRGHTRNKSTSSAMSGSHQDFSAIQPIVKDCREADLSLYNEFRSWKDEPTMDRTCPFLDKIYQEDSFPCLTFAKSELASAVLEAVENNTLSIEPVGLQPIRFVKASAVECGGPKKCALTGQSKPCKHRIKLGDSSSYYYISPVCRYRITSVCNFFTYIRYIQQGLVKQQDVDQMFWEVMQLRKEMSLAKLGYFKEEL [I329S], the “effect of a mutation on the interaction” value was “increasing interaction”.

Variants of: B2
Conditions: with rb11a_mouse Rab11a
With MANDPLEGFHEVNLASPTSPDLLGVCDPGTQEQTTSPSVIYRPHPSTLCSATIQANALNLSDLPTQPVYSSPRHLNCAEISNISIHVPEPASSVASEVAAGLTRFTSRKDSCNAEREFLQGATVTEASAGNDDIFGLSTDSLSRLRSPSVLEVREKGYERLKEELAKAQRELKLKDEECERLSKVRDQLGQELEELTASLFEEAHKMVREANVKQATAEKQLKEAQGKIDVLQAEVAALKTLVLSSSPTSPTQEPLAAGKTPFKRGHTRNKSTSSAMSGSHQDFSAIQPIVKDCREADLSLYNEFRSWKDEPTMDRTCPFLDKIYQEDSFPCLTFAKSELASAVLEAVENNTLSIEPVGLQPIRFVKASAVECGGPKKCALTGQSKPCKHRIKLGDSSSYYYISPVCRYRITSVCNFFTYIRYIQQGLVKQQDVDQMFWEVMQLRKEMSLAKLGYFKEEL [I329S] the “effect of a mutation on the interaction” value was “disrupting interaction”.

Variants of: B2
Conditions: with rb11a_mouse Rab11a
Remark: another data set of the same source
MANDPLEGFHEVNLASPTSPDLLGVCDPGTQEQTTSPSVIYRPHPSTLCSATIQANALNLSDLPTQPVYSSPRHLNCAEISNISIHVPEPASSVASEVAAGLTRFTSRKDSCNAEREFLQGATVTEASAGNDDIFGLSTDSLSRLRSPSVLEVREKGYERLKEELAKAQRELKLKDEECERLSKVRDQLGQELEELTASLFEEAHKMVREANVKQATAEKQLKEAQGKIDVLQAEVAALKTLVLSSSPTSPTQEPLAAGKTPFKRGHTRNKATSSAMSGSHQDFSAIQPIVKDCREADLSLYNEFRSWKDEPTMDRTCPFLDKIYQEDIFPCLTFAKSELASAVLEAVENNTLSIEPVGLQPIRFVKASAVECGGPKKCALTGQSKPCKHRIKLGDSSSYYYISPVCRYRITSVCNFFTYIRYIQQGLVKQQDVDQMFWEVMQLRKEMSLAKLGYFKEEL [S272A] was tested, and the “effect of a mutation on the interaction” value was “increasing interaction”.

Source: IntAct's records for PubMed 23435566
